Source: doi:10.1101/2023.01.09.523197 (bioRxiv, 2023)

Target: the molecule itself
Assay: crystal structure

B1: Saccharopolyspora erythraea GlnR-DBD (domain or fragment)
chain: DGMLTVGDLVIEESTYTARLKGRALELTYKEFELLKYLAQHAGRVFTRAQLLQEVWGYDFFGGTRTVDVHVRRLRAKLGPEYDSMIGTVRNVGYKFVRPS
- binding result: binds
